B1: AjATG4 WT probe (dsDNA)
DNA 1: TTTACGGCGCCTGTTTACGTCATCAACC
DNA 2: GGTTGATGACGTAAACAGGCGCCGTAAA
B2: AjLC3 Mut probe (dsDNA)
DNA 1: ATATCCTTTTGTGACACCTTCGGAAAG
DNA 2: CTTTCCGAAGGTGTCACAAAAGGATAT
B3: AjLC3 WT probe (dsDNA)
DNA 1: ATATCCTTTTGTCTGTTTTTCGGAAAG
DNA 2: CTTTCCGAAAAACAGACAAAAGGATAT
B4: AjATG4 Mut probe (dsDNA)
DNA 1: TTTACGGCGCGACAAAACGTCATCAACC
DNA 2: GGTTGATGACGTTTTGTCGCGCCGTAAA

The binders below were run against AjFoxO (rAjFoxO) (Apostichopus japonicus, UniProt A0A2G8KG36 1-567) (assay: EMSA).

Binder	binding result
B1	binds
B2	no binding
B3	binds
B4	no binding

Reference: article PMC11705696
